Test [1] concerns the target T1, truncated wild type EGFR 1-525 (EGFR1 (1-525)-SRGPF-Myc-NMHTG-6His) (human, UniProt P00533 25-525).
T1 construct: the signal peptide is left out; not shown: Myc tag
The test is described as follows: SPR (Biacore T100). Background: SPR reads the build-up and loss of mass on a sensor chip optically.

In test [2] the target is T2, EGFRvIII extracellular domain (EGFR (1-29)-G-(298-645)-LESRGPF-Myc-NMHTG-6His) (human, UniProt P00533 298-641).
T2 construct: also called recombinant EGFRvIII; not shown: Myc tag
The test is described as follows: SPR (Biacore T100).

In test [3] the target is T1, truncated wild type EGFR 1-525 (EGFR1 …). The test is described as follows: SPR (Biacore), antibody captured via anti-human Fc, antigen injected. On the procedure:
(§1) Biacore analysis was performed using a Biacore T100 with a CM5 sensory chip, and test antibodies were captured via anti-human Fc antibodies that were amino coupled to the chip using a standard amine coupling kit according to manufacturer's instructions (GE healthcare). Briefly, a CM5 chip surface was activated with EDC/NHS. Goat anti-human Fc specific polyclonal antibody (Thermo Fisher Scientific Inc., Rockford, Ill.) was diluted to 25 μg/mL in 10 mM sodium acetate (pH 4.5) and injected over the activated surface to achieve immobilization. Unreacted moieties on the biosensor surface were blocked with ethanolamine. The Biacore T100 is a surface plasmon resonance based biosensor for detecting, characterizing and quantifying bimolecular interactions, including the interactions between an antibody and its antigen. Antigen was injected at 80 μL/minute for 3 minutes and dissociation was followed for 15 minutes.

The target of test [4] is T2, EGFRvIII extracellular domain (EGFR …). Described as above. On the procedure:
as §1

The next test concerns the target T3, EGFRvIII on U87MG cells (human, UniProt P00533 298-1210).
T3 construct: also called de2-7 EGFR
The test is described as follows: competition FACS on U87MG de2-7 cells expressing EGFRvIII; competitor Ab1-FITC at 100 nM.

Test [5] concerns the target T4, wild type human EGFR on cells (A431, NHEK, SCC-15, H292) (human, UniProt P00533 25-1210).
T4 construct: Endogenous receptor of human cell lines and keratinocytes said to express wild type EGFR; also called wild type EGFR; wtEGFR
As to the kind of experiment: FACS binding to normal human epidermal keratinocytes (NHEK), AlexaFluor 488 secondary antibody. The method, then: NHEK cells express wild type EGFR.
Cells were harvested when approximately 80% confluent using trypsin, neutralized and washed once in PBS/1% FBS (FACS buffer) then resuspended at 2.5×10⁶ cells/mL in FACS buffer. 100 μL of cells/well were added to a round bottom 96-well plate. 10 μL of a 10x concentration of Ab (final concentrations are listed in the Figures) was added and plate was incubated at 4° C. for one hour. Wells were washed twice with FACS buffer then resuspended in 50 μL of secondary Ab (AlexaFluor 488) diluted in FACS buffer. The plate was incubated at 4° C. for one hour then washed twice with FACS buffer. Cells were then resuspended in 100 μL of PBS/1% formaldehyde and analyzed on a Becton Dickinson LSRII flow cytometer. Data was analyzed using WinList flow cytometry analysis software.

Test [6] deals with T4, wild type human EGFR on cells (A431, …). As to the kind of experiment: cell-based or functional assay.
The target of test [7] is T1, truncated wild type EGFR 1-525 (EGFR1 …). As to the kind of experiment: SPR (summary of FIG. 6).

Numbering of substitutions follows the chain as printed.

B1: Antibody G (AbG) (antibody, V domains shown)
VH: EVQLQESGPGLVKPSQTLSLTCTVSGYSISNDFAWNWIRQLPGKGLEWMGYISYKGNTRYQPSLKSRITISRDTSKNQFFLKLNSVTAADTATYYCVTASRGLPYWGQGTLVTVSS
VL: DIQMTQSPSSMSVSVGDRVTITCHSSQDITYNIGWLQQKPGKSFKGLIYHGANLDDGVPSRFSGSGSGTDYTLTISSLQPEDFATYYCVQYDEFPWTFGGGTKLEIK
notes: Full length IgG1
For B1, the “fold increase in affinity relative to Ab1” value in test [1] is 263 fold. Further, the “fold increase in binding relative to Ab1” value in test [2] was over 47 fold. In test [3], the affinity, expressed as Kd, was 8.6 nM; the koff worked out at 5.88e-05 s⁻¹; the kon stood at 6800 M⁻¹ s⁻¹. In test [4], the “KD ratio (Ab1/variant Ab)” value is 47.2; the affinity, expressed as Kd, was 0.2 nM; the off-rate (koff) was 7.44e-05 s⁻¹; the kon is 374000 M⁻¹ s⁻¹. For the same molecule, the “IC50 (read off the curve)” value in the test with EGFRvIII on U87MG cells is about 20 nM. Further, in test [5], the “EC50 (read off the curve)” value is about 40 nM.

B2: Antibody O (AbO) (antibody, V domains shown)
VH: B1 VH with S30G, N31K, L41P, K55N, L103F
VL: B1 VL with I33V, A52S, D56H, E93D
notes: Full length IgG1; also called Antibody 0
In the case of B2, the “fold increase in affinity relative to Ab1” value in test [2] is 63 fold. Moreover, in test [3], the “KD ratio (Ab1/variant Ab)” value was found to be 582, the Kd worked out at 3.9 nM, the off-rate constant (koff) was 2.05e-05 s⁻¹ and the kon was found to be 5250 M⁻¹ s⁻¹. In addition, in test [4], the “KD ratio (Ab1/variant Ab)” value stood at 35.2, the dissociation constant (Kd) was determined as 0.27 nM, the koff was found to be 5.22e-05 s⁻¹ and the association rate constant (kon) was 196000 M⁻¹ s⁻¹.

B3: Antibody P (AbP) (antibody, V domains shown)
VH: B1 VH with N31H, L41P, K55S, R101W, Y105W
VL: B1 VL with T30N, Y31M, I33V, N53I, D92A
notes: Full length IgG1
Turning to B3, the “IC50 of inhibition of EGFR signaling in A431 cells (phospho-EGFR ELISA)” value in test [6] was over 40 nM. For the same molecule, the koff in test [7] was under 0.0001 s⁻¹. In test [3], the “KD ratio (Ab1/variant Ab)” value worked out at 106, the Kd stood at 21 nM, the koff was 7.67e-05 s⁻¹ and the association rate constant (kon) is 3580 M⁻¹ s⁻¹. Also, in test [4], the “KD ratio (Ab1/variant Ab)” value was found to be 8.2, the Kd was 1.2 nM, the koff turned out to be 0.000135 s⁻¹ and the on-rate constant (kon) was 117000 M⁻¹ s⁻¹. Besides, in the test with EGFRvIII on U87MG cells, the “IC50 (read off the curve)” value was about 30 nM. Besides, the half-maximal effective concentration (EC50 (read off the curve)) in test [5] is about 30 nM.

As a reminder, the Kd is the equilibrium constant for the complex coming apart. The term koff denotes the first-order rate constant of dissociation. Low values mean slow dissociation, high ones fast dissociation. For orientation: kon means a measure of how fast the partners come together. A higher kon goes with faster complex formation. In general, EC50 (read off the curve) refers to the midpoint of the concentration-response curve. Low values mean a more potent agent, high ones a less potent agent.

The record behind these values is patent US20150337042A1 (AbbVie / Abbott, published 2015).
